Molecular target: T1, Myc-tagged Mst1 (UniProt Q13043 1-487)
T1 sequence (looked up): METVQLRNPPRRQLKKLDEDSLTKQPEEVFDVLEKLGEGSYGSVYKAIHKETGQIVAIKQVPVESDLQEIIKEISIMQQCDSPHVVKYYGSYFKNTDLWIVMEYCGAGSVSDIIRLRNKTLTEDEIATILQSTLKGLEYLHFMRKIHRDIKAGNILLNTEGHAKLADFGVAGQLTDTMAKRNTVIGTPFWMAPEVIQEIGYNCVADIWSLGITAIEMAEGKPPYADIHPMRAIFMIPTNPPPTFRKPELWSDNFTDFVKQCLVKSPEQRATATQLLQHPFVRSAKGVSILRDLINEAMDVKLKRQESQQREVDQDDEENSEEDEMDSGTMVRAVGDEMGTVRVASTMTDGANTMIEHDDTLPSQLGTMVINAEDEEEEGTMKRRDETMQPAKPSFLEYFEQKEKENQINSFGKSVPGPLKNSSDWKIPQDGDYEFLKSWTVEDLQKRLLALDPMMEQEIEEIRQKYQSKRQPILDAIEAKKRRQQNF
Test: cell-based or functional assay

- in vitro kinase assay of Mst1 immunoprecipitated from HEK293T cells transfected with Myc-Mst1 with or without Flag-GAPDH: Mst1 autophosphorylation and MBP phosphorylation, increase with GAPDH: ~2 fold
B1: FLAG-tagged GAPDH (enzyme)
chain: not shown
